Data set [1] is described as follows: Luciferase assay with luciferin reagent, freeze-dried with BSA (Example 10). In kind it is biochemical. The protocol: Luciferase stock was purchased from Promega Corporation (code E1701) and consisted of 1 mg of purified protein at a concentration of 13.5 mg/ml, correlating to 2.13×10^−4M using an approximate molecular weight of 60 kDa. The stock was thawed and refrozen (untouched, without addition of any excipients) at −45° C. as 44 aliquots. These aliquots were subsequently used for all experiments.
Luciferin was purchased from Promega Corporation as a kit that also included ATP (code E1500). This kit shall henceforth be referred to as luciferin reagent and consisted of pairs of vials that required mixing before use. One vial contained a lyophilised powder and the other 10 ml of a frozen liquid. To produce stocks, these vials were mixed and then refrozen as 1 ml aliquots at −20° C. in standard 1.5 ml Eppendorf tubes. Vials and reconstituted luciferin reagent were stored at −20° C. in an opaque box and only removed under conditions of near-darkness. […]
The luciferase assay involved the mixing of various concentrations of luciferase with an undiluted aliquot of luciferin reagent in black opaque 96 well plates. The initial (linear) phase of this luminogenic reaction was then immediately quantified by a luminometer. As per the manufacturer's recommendation, luciferase samples were of a 100 μl volume and luminescence was initiated by addition of 100 μl of luciferin reagent. […]

The nature of data set [2]: Luciferase luminescence assay after freeze-drying (Example 4). Format: biochemical. Particulars: freeze-dried in excipient of 1.092M sucrose, 0.0499M stachyose and 27 nM, 2.7 nM or 0.27 nM PEI. The protocol:
The final concentrations of PEI and sugars were: • PEI: 27 nM, 2.7 nM or 0.27 nM • sucrose: 1.092 M, and • stachyose: 0.0499M.
All vials were set up in triplicate.
The vials contained a free-flowing freeze-dried powder. The powder was reconstituted by adding 1 ml PBS. […] Luciferase assay reagent was added to each well according to manufacturer's instructions and luminescence was read on a Synergy 2 luminometer.

For the substance “Luciferase: luciferase enzyme purchased from Promega (code E1701 in Example 10)”, the “lyoprotectant effects of sugar mix and PEI on luciferase activity” value in data set [1] (both added together before freeze-drying) was “synergistic”. Also, the “lyoprotectant contribution of excipient component on luciferase activity” value in data set [1] (sugar mix or PEI added after freeze-drying) was “wholly negates its contribution”. In addition, the “thermal stability of luciferase (luminescence)” value in data set [2] is reported as “improved thermal stability”.

Source of the values: patent publication US20130071431A1, “Method for Preserving Polypeptides Using A Sugar and Polyethyleneimine” (Stabilitech Ltd., priority 2008, published 2013).
